Test results published in patent publication US20190033318A1 (UNIVERSITY OF SOUTHAMPTON, published 2019).
Non-standard residues stand in square brackets, D forms with d. FITC‑maleimide = fluorescein isothiocyanate-maleimide label on the cysteine; Tyr(3-NO2) = N[C@@H](Cc1ccc(O)c([N+](=O)[O-])c1)C(=O)O; Phe(4-CN) = N#Cc1ccc(C[C@H](N)C(=O)O)cc1; Phe(4-Cl) = N[C@@H](Cc1ccc(Cl)cc1)C(=O)O; Pal = not defined here

B1: CRLLI(Pal) (peptide)
peptide: cyclo(CRLLI[Pal])
modifications: not fully specified; printed as CRLLI(Pal); reading uncertain
notes: also called CRLLIX where X = Pal
B2: CRLLI(4-CN-F) (peptide)
peptide: cyclo(CRLLI[Phe(4-CN)])
notes: also called CRLLIX where X = 4-CN-F
B3: CRLLI(3-NO2-Y) (peptide)
peptide: cyclo(CRLLI[Tyr(3-NO2)])
SMILES: CC[C@H](C)[C@@H]1NC(=O)[C@H](CC(C)C)NC(=O)[C@H](CC(C)C)NC(=O)[C@H](CCCNC(=N)N)NC(=O)[C@H](CS)NC(=O)[C@H](Cc2ccc(O)c([N+](=O)[O-])c2)NC1=O
notes: also called CRLLIX where X = 3-NO2-Y
B4: CRLLI(4-Cl-F) (peptide)
peptide: cyclo(CRLLI[Phe(4-Cl)])
notes: also called CRLLIX where X = 4-Cl-F
B5: FITC-CKLIIF (SEQ ID NO 2) (peptide)
peptide: cyclo(C(FITC‑maleimide)KLIIF)
B6: FITC-CRLLIF (SEQ ID NO 3) (peptide)
peptide: cyclo(C(FITC‑maleimide)RLLIF)
B7: CRAIIF (peptide)
peptide: CRAIIF
notes: also called alanine scan peptide of CRVIIF, position 3 (V to A)
B8: cyclo-SGWEMIQRR (SEQ ID NO 5) (peptide)
peptide: SGWEMIQRR
modifications: cyclic peptide (first amino acid joined to the last)
notes: One of the 4 cyclic peptide hits

Each binder was assayed against T1, 2α PASB (HIF-2α PASB domain, 240-350) (UniProt Q99814 240-350, labelled with NT-647-NHS dye in MST; 15N (and 13C 15N) labelled in NMR) (assay: MST, HIF-2α PASB domain).
T1 construct: range 240-350; also called PAS B domain of HIF-2α; not shown: His6 tag of vector pET28, then Met
T1 sequence (Q99814 240-350): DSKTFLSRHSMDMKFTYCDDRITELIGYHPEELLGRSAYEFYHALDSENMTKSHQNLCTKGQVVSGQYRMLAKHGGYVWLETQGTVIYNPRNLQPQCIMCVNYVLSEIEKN

Question: Which Kd does the source give for B1 here?
Answer: The Kd was 45.3 µM.

Question: How did the Kd turn out when B2 was run?
Answer: The Kd was 9.46 µM.

Question: For B3, which Kd is on record?
Answer: Its Kd is 49 µM.

Question: B4 was tested. Which Kd did it give?
Answer: The Kd was 4.15 µM.

What follows are binders tested against T2, HIF-2α (construct not given) (UniProt Q99814 1-360, limits assumed) (assay: HIF-2 ELISA, inhibition of HIF-2α/HIF-1β dimerisation).
T2 construct: also called HIF-2 ELISA
T2 sequence (Q99814 1-360 limits assumed): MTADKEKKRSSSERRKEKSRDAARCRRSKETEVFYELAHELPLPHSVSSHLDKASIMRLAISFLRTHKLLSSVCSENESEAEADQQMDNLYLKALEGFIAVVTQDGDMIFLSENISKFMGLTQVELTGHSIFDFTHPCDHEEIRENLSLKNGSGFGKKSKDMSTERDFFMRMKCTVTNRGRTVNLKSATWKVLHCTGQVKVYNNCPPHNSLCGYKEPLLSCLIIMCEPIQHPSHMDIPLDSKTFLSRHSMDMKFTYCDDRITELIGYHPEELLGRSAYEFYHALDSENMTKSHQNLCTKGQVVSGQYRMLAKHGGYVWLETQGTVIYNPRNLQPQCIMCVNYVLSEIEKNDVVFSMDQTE

Question: How did the “Activity as measured by a HIF-2 ELISA” value turn out when B5 was run?
Answer: The value was 0.77 µM.

Question: For B6, which “Activity as measured by a HIF-2 ELISA” value is on record?
Answer: The value was 0.47 µM.

Each binder was assayed against T3, 1α PASB (HIF-1α PASB domain, 238-349) (UniProt Q16665 238-349, labelled with NT-647-NHS dye in MST) (assay: competition ELISA: 1α PASB on Ni plate, peptide titrated, blocked partner GST-1β; the value stands in the panel without a name, the ELISA fits give IC50; the fall is only partial).
T3 construct: range 238-349; not shown: His6 tag of vector pET28, then Met
Procedure: 25 μL of His-tagged HIF-α protein (either Trx-1α, Trx-2α, 1α PASB, or 2α PASB) at 0.1 μM in HIF assay buffer were added to individual wells of a Pierce Ni²⁺-coated 96-well plate (Thermo) in triplicate. The plate was rocked gently at room temperature for 1 hr, before washing with 3×200 μL assay buffer (5 min incubation per wash). 25 μL of compounds and/or DMSO at the stated concentrations were added to the plate and allowed to equilibrate for 30 min prior to the addition of 25 μL of GST-1β at 0.2 μM in assay buffer for 1 hr. For conditions in which no compound or DMSO were used, GST-1β was added as a 0.1 μM solution. After incubation with GST-1β, the wells were washed with 3×200 μL assay buffer then 1×200 μL PBS. The wells were then incubated with 100 μL mouse α-GST antibody (Thermo, MS-707-P) at a 1/1000 dilution in PBS supplemented with 0.1% Tween-20 (PBST) and 2% non-fat powdered milk (Marvel) for 1 hr, followed by 3×200 μL washed with PBS. 100 μL of secondary HRP-conjugated α-mouse antibody (GE Healthcare) was added at a 1/6000 dilution in 2% milk/PBST for 1 hr, then washed with 3×200 μL PBS. […] Absorbance was read at 450 nm using a Tecan Infinite M200 Pro plate reader. Data were fitted and IC₅₀ values determined by non-linear regression using GraphPad Prism 6.

Question: Which IC50 does the source give for B7 here?
Answer: Its IC50 is 51 µM.

What follows are binders tested against T4, 1β PASB (HIF-1β PASB domain, 356-474) (UniProt P27540 356-474) (assay: thermal shift assay, 1 mM peptide).
T4 construct: range 356-474; not shown: His6 tag of vector pET28
Procedure: (§1) Thermal denaturation of HIF proteins was performed in 20 μL reactions in triplicate using a Bio-Rad CFX Connect Real-Time System. Proteins were used at either 5 μM (Trx-1α, Trx-2α and GST-1β) or 15 μM (His-tagged PASB domains) in HIF assay buffer, with 10 mM DTT and SYPRO orange dye (Life Technologies) at a final concentration of 8×(relative to 5000×stock), and supplemented with either DMSO or compound dissolved in DMSO at the stated concentrations. The reaction plate was assembled on ice, then transferred to the pre-chilled thermal cycler, held at 10° C. for 5 min (heated lid, 105° C.), then the temperature ramped to 95° C. Fluorescence was recorded at 0.5° C. increments, holding for 5 sec at each temperature. Data were plotted using GraphPad Prism 6, and melting temperatures calculated using the first derivative method in which the peak (i.e. the steepest transition between data points) represents the point at which 50% of the protein sample is denatured. Errors are quoted as the inherent error associated with the first derivative of the data, i.e. ±0.25° C. for Tₘ values and ±0.5° C. for ΔTₘ values.

T4 sequence (P27540 356-474): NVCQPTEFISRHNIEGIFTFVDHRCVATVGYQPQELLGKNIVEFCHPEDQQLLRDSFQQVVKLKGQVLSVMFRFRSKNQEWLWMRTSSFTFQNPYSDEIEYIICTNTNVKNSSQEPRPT

Question: B8 was tested. Which ΔTm did it give?
Answer: Its ΔTm is -0.5 ° C.

What follows are binders tested against T5, Trx-1α (thioredoxin-tagged HIF-1α 1-350, bHLH-PASA-PASB) (UniProt Q16665 1-350) (assay: thermal shift assay, 1 mM peptide).
T5 construct: range 1-350; not shown: Thioredoxin-His6 tag of vector pET32
Procedure: as §1

Question: With B8 as the binder, how does the ΔTm read?
Answer: The ΔTm was -2.5 ° C.

The binders below were run against T6, HIF-1α (construct not given) (UniProt Q16665 1-350, limits assumed) (assay: HIF-1 ELISA, inhibition of HIF-1α/HIF-1β dimerisation).
T6 construct: also called HIF-1 ELISA
Procedure: (§2) 25 μL of His-tagged HIF-α protein (either Trx-1α, Trx-2α, 1α PASB, or 2α PASB) at 0.1 μM in HIF assay buffer were added to individual wells of a Pierce Ni²⁺-coated 96-well plate (Thermo) in triplicate. The plate was rocked gently at room temperature for 1 hr, before washing with 3×200 μL assay buffer (5 min incubation per wash). 25 μL of compounds and/or DMSO at the stated concentrations were added to the plate and allowed to equilibrate for 30 min prior to the addition of 25 μL of GST-1β at 0.2 μM in assay buffer for 1 hr. For conditions in which no compound or DMSO were used, GST-1β was added as a 0.1 μM solution. After incubation with GST-1β, the wells were washed with 3×200 μL assay buffer then 1×200 μL PBS. The wells were then incubated with 100 μL mouse α-GST antibody (Thermo, MS-707-P) at a 1/1000 dilution in PBS supplemented with 0.1% Tween-20 (PBST) and 2% non-fat powdered milk (Marvel) for 1 hr, followed by 3×200 μL washed with PBS. 100 μL of secondary HRP-conjugated α-mouse antibody (GE Healthcare) was added at a 1/6000 dilution in 2% milk/PBST for 1 hr, then washed with 3×200 μL PBS. Wells were incubated with 100 μL of 1-Step Ultra TMB-ELISA solution (Thermo) until a blue colour developed (typically 10-15 min) and the reaction was stopped by the addition of 100 μL of a ⅕ dilution of conc. H₂SO₄, which turned the solution yellow. Absorbance was read at 450 nm using a Tecan Infinite M200 Pro plate reader. Data were fitted and IC₅₀ values determined by non-linear regression using GraphPad Prism 6.

Question: For B1, which IC50 is on record?
Answer: Its IC50 is 294 µM.

Question: For B2, which IC50 is on record?
Answer: Its IC50 is 44.2 µM.

Question: With B3 as the binder, how does the IC50 read?
Answer: The IC50 was 19.5 µM.

Question: B4 was tested. Which IC50 did it give?
Answer: Its IC50 is 13.2 µM.

Molecular target: T2, HIF-2α (construct not stated at the …)
Experiment: HIF-2 ELISA, inhibition of HIF-2α/HIF-1β dimerisation
Remark: another data set of the same source
Procedure: as §2

Question: B1 was tested. Which IC50 did it give?
Answer: Its IC50 is 212 µM.

Question: Which IC50 does the source give for B2 here?
Answer: The IC50 was 6.27 µM.

Question: With B3 as the binder, how does the IC50 read?
Answer: The IC50 was 22.7 µM.

Question: How did the IC50 turn out when B4 was run?
Answer: The IC50 was 4.88 µM.

What follows are binders tested against T1, 2α PASB (HIF-2α PASB domain, 240-350) (assay: MST, peptide titrated into labelled PAS-B domain of HIF-2α).

Question: How did the Kd turn out when B4 was run?
Answer: Its Kd is 4.2 µM.

These binders were tested against T3, 1α PASB (HIF-1α PASB domain, 238-349) (assay: MST, HIF-1α PASB domain).

Question: Which Kd does the source give for B1 here?
Answer: Its Kd is 69.2 µM.

Question: For B2, which Kd is on record?
Answer: The Kd was 10 µM.

Question: With B3 as the binder, how does the Kd read?
Answer: Its Kd is 90.7 µM.

Question: With B4 as the binder, how does the Kd read?
Answer: Its Kd is 2.8 µM.
